One substance from article PMC5595370 can be followed below.

The target of test [1] is HPV59 L1 C175S mutant after limited trypsin digestion (crystallized pentamer) (human papillomavirus type 59). Kind of test: crystal structure.
Test [2] shares this target. As to the kind of experiment: AUC.

As a reminder, the stoichiometry N is a count of units in the complex or per binding partner.

Consider “HPV59 L1 C175S mutant after limited trypsin digestion (crystallized pentamer) (domain or fragment)”, for which the stoichiometry N in test [1] and in test [2] was 5 each time.
